According to US20230212319A1, “NOVEL ANTIGEN BINDING DOMAINS AND SYNTHETIC ANTIGEN RECEPTORS INCORPORATING THE SAME” (University of Southern California, priority 2020, published 2023):

B1: 4089 (protein)
chain: MALPVTALLLPLALLLHAARPDIQMTQSPSSLSASVGDRVTITCKASDHINNWLAWYQQKPGQAPKLLIYGATTLETGVPSRFSGSGSGTDYTLTISSLQPEDFATYYCQQSWNTPWTFGQGTKLEIKRLEDLKNVFPPEVAVFEPSKAEIAHTQKATLVCLATGFYPDHVELSWWVNGKEVHSGVCTDPQPLKEQPALNDSRYCLSSRLRVSATFWQNPRNHFRCQVQFYGLSENDEWTQDRAKPVTQIVSAEAWGRADCGITSASYHQGVLSATILYEILLGKATLYAVLVSALVLMAMVKRKDSRGRAKRSGSGATNFSLLKQAGDVEENPGPTSMDWIWRILFLVGAATGAHSGPQVQLQESGGGLAQAGGSLRLSCAASGRTFSMGWFRQAPGKEREFVAAITYSGGSPYYASSVRGRFTISRDNAKNTVYLQMNSLKPEDTAVYYCAANPTYGSDWNAENWGQGTQVTVSSGSGGGGSGGGGSGGGGSFEQVQLQQPGAELVKPGASVKMSCKASGYAFSSYWINWMKQKPGQGLEWIGQIYPGDGDTNYNGKFKGRATLTADTSSSTAYMQLSSLTSEDSAVYFCARSITTVVGCAMDYWGQGTSVTVSSTRIQNPDPAVYQLRDSKSSDKSVCLFTDFDSQTNVSQSKDSDVYITDKCVLDMRSMDFKSNSAVAWSNKSDFACANAFNNSIIPEDTFFPSSDVPCDVKLVEKSFETDTNLNFQNLSVIGFRILLLKVAGFNLLMTLRLWSSRAKRSGSGVKQTLNFDLLKLAGDVESNPGPSRGHMTEYKPTVRLATRDDVPRAVRTLAAAFADYPATRHTVDPDRHIERVTELQELFLTRVGLDIGKVWVADDGAAVAVWTTPESVEAGAVFAEIGPRMAELSGSRLAAQQQMEGLLAPHRPKEPAWFLATVGVSPDHQGKGLGSAVVLPGVEAAERAGVPAFLETSAPRNLPFYERLGFTVTADVEVPEGPRTWCMTRKPGA
modifications: Synthetic Polynucloetide
B2: 22691 (protein)
chain: MALPVTALLLPLALLLHAARPDIQMTQSPSSLSASVGDRVTITCRASQDISSYLNWYQQKPGKAPKLLIYYTSRLHSGVPSRFSGSGSGTDFTLTISSLQPEDFATYYCQQGNTLPYTFGQGTKVEIKRLEDLKNVFPPEVAVFEPSEAEISHTQKATLVCLATGFYPDHVELSWWVNGKEVHSGVCTDPQPLKEQPALNDSRYCLSSRLRVSATFWQNPRNHFRCQVQFYGLSENDEWTQDRAKPVTQIVSAEAWGRADCGFTSESYQQGVLSATILYEILLGKATLYAVLVSALVLMAMVKRKDSRGRAKRSGSGATNFSLLKQAGDVEENPGPTSMDWIWRILFLVGAATGAHSFEVQLVESGGGLVQPGGSLRLSCAASGFTFSDYFMSWVRQAPGKGLEWVATISNGGTYTYYPDSVKGRFTISRDNSKNTLYLQMNSLRAEDTAVYYCARFDGYIFDYWGQGTLVTVSSTRIQNPDPAVYQLRDSKSSDKSVCLFTDFDSQTNVSQSKDSDVYITDKCVLDMRSMDFKSNSAVAWSNKSDFACANAFNNSIIPEDTFFPSPESSCDVKLVEKSFETDTNLNFQNLSVIGFRILLLKVAGFNLLMTLRLWSSRAKRSGSGVKQTLNFDLLKLAGDVESNPGPSRGHMTEYKPTVRLATRDDVPRAVRTLAAAFADYPATRHTVDPDRHIERVTELQELFLTRVGLDIGKVWVADDGAAVAVWTTPESVEAGAVFAEIGPRMAELSGSRLAAQQQMEGLLAPHRPKEPAWFLATVGVSPDHQGKGLGSAVVLPGVEAAERAGVPAFLETSAPRNLPFYERLGFTVTADVEVPEGPRTWCMTRKPGA
B3: 22692 (protein)
chain: MALPVTALLLPLALLLHAARPDIQMTQSPSSLSASVGDRVTITCRASQDISNYLNWYQQKPGKAPKLLIYYTSRLHSGVPSRFSGSGSGTDFTLTISSLQPEDFATYYCQQGNTLPWTFGQGTKVEIKRLEDLKNVFPPEVAVFEPSEAEISHTQKATLVCLATGFYPDHVELSWWVNGKEVHSGVCTDPQPLKEQPALNDSRYCLSSRLRVSATFWQNPRNHFRCQVQFYGLSENDEWTQDRAKPVTQIVSAEAWGRADCGFTSESYQQGVLSATILYEILLGKATLYAVLVSALVLMAMVKRKDSRGRAKRSGSGATNFSLLKQAGDVEENPGPTSMDWIWRILFLVGAATGAHSFEVQLVESGGGLVQPGGSLRLSCAASGFTFSDYFMSWVRQAPGKGLEWVATISNGGTYTYYPDSVKGRFTISRDNSKNTLYLQMNSLRAEDTAVYYCARFDGYIFDYWGQGTLVTVSSTRIQNPDPAVYQLRDSKSSDKSVCLFTDFDSQTNVSQSKDSDVYITDKCVLDMRSMDFKSNSAVAWSNKSDFACANAFNNSIIPEDTFFPSPESSCDVKLVEKSFETDTNLNFQNLSVIGFRILLLKVAGFNLLMTLRLWSSRAKRSGSGVKQTLNFDLLKLAGDVESNPGPSRGHMTEYKPTVRLATRDDVPRAVRTLAAAFADYPATRHTVDPDRHIERVTELQELFLTRVGLDIGKVWVADDGAAVAVWTTPESVEAGAVFAEIGPRMAELSGSRLAAQQQMEGLLAPHRPKEPAWFLATVGVSPDHQGKGLGSAVVLPGVEAAERAGVPAFLETSAPRNLPFYERLGFTVTADVEVPEGPRTWCMTRKPGA
B4: 22694 (protein)
chain: MALPVTALLLPLALLLHAARPDIQMTQSPSSLSASVGDRVTITCRASQDISNYLNWYQQKPGKAPKLLIYYTSRLHSGVPSRFSGSGSGTDFTLTISSLQPEDFATYYCQQGNTLPWTFGQGTKVEIKRLEDLKNVFPPEVAVFEPSEAEISHTQKATLVCLATGFYPDHVELSWWVNGKEVHSGVCTDPQPLKEQPALNDSRYCLSSRLRVSATFWQNPRNHFRCQVQFYGLSENDEWTQDRAKPVTQIVSAEAWGRADCGFTSESYQQGVLSATILYEILLGKATLYAVLVSALVLMAMVKRKDSRGRAKRSGSGATNFSLLKQAGDVEENPGPTSMDWIWRILFLVGAATGAHSFEVQLVESGGGLVQPGGSLRLSCAASGFTFSDYFMSWVRQAPGKGLEWVATISNGGTYTYYPDSVKGRFTISRDNSKNTLYLQMNSLRAEDTAVYYCARFDGYIFDYWGQGTLVTVSSTRIQNPDPAVYQLRDSKSSDKSVCLFTDFDSQTNVSQSKDSDVYITDKCVLDMRSMDFKSNSAVAWSNKSDFACANAFNNSIIPEDTFFPSPESSCDVKLVEKSFETDTNLNFQNLSVIGFRILLLKVAGFNLLMTLRLWSSRAKRSGSGVKQTLNFDLLKLAGDVESNPGPSRGHMTEYKPTVRLATRDDVPRAVRTLAAAFADYPATRHTVDPDRHIERVTELQELFLTRVGLDIGKVWVADDGAAVAVWTTPESVEAGAVFAEIGPRMAELSGSRLAAQQQMEGLLAPHRPKEPAWFLATVGVSPDHQGKGLGSAVVLPGVEAAERAGVPAFLETSAPRNLPFYERLGFTVTADVEVPEGPRTWCMTRKPGA
B5: 22687 (protein)
chain: MALPVTALLLPLALLLHAARPDIQMTQSPSSLSASVGDRVTITCRASQDISNYLNWYQQKPGKAPKLLIYYTSRLHSGVPSRFSGSGSGTDFTLTISSLQPEDFATYYCQQGNTLPWTFGQGTKVEIKRLEDLKNVFPPEVAVFEPSEAEISHTQKATLVCLATGFYPDHVELSWWVNGKEVHSGVCTDPQPLKEQPALNDSRYCLSSRLRVSATFWQNPRNHFRCQVQFYGLSENDEWTQDRAKPVTQIVSAEAWGRADCGFTSESYQQGVLSATILYEILLGKATLYAVLVSALVLMAMVKRKDSRGRAKRSGSGATNFSLLKQAGDVEENPGPTSMDWIWRILFLVGAATGAHSFEVQLVESGGGLVQPGGSLRLSCAASGYTFSDYFMSWVRQAPGKGLEWVATISNGGTYTYYPDSVKGRFTISRDNSKNTLYLQMNSLRAEDTAVYYCARFDGYIFDYWGQGTLVTVSSTRIQNPDPAVYQLRDSKSSDKSVCLFTDFDSQTNVSQSKDSDVYITDKCVLDMRSMDFKSNSAVAWSNKSDFACANAFNNSIIPEDTFFPSPESSCDVKLVEKSFETDTNLNFQNLSVIGFRILLLKVAGFNLLMTLRLWSSRAKRSGSGVKQTLNFDLLKLAGDVESNPGPSRGHMTEYKPTVRLATRDDVPRAVRTLAAAFADYPATRHTVDPDRHIERVTELQELFLTRVGLDIGKVWVADDGAAVAVWTTPESVEAGAVFAEIGPRMAELSGSRLAAQQQMEGLLAPHRPKEPAWFLATVGVSPDHQGKGLGSAVVLPGVEAAERAGVPAFLETSAPRNLPFYERLGFTVTADVEVPEGPRTWCMTRKPGA
B6: 4088 (protein)
chain: MALPVTALLLPLALLLHAARPDIQMTQSPSSLSASVGDRVTITCKASDHINNWLAWYQQKPGQAPKLLIYGATTLETGVPSRFSGSGSGTDYTLTISSLQPEDFATYYCQQSWNTPWTFGQGTKLEIKRLEIQNPDPAVYQLRDSKSSDKSVCLFTDFDSQTNVSQSKDSDVYITDKCVLDMRSMDFKSNSAVAWSNKSDFACANAFNNSIIPEDTFFPSSDVPCDVKLVEKSFETDTNLNFQNLSVIGFRILLLKVAGFNLLMTLRLWSSRAKRSGSGVKQTLNFDLLKLAGDVESNPGPTSMDWIWRILFLVGAATGAHSGPQVQLQESGGGLAQAGGSLRLSCAASGRTFSMGWFRQAPGKEREFVAAITYSGGSPYYASSVRGRFTISRDNAKNTVYLQMNSLKPEDTAVYYCAANPTYGSDWNAENWGQGTQVTVSSGSGGGGSGGGGSGGGGSFEQVQLQQPGAELVKPGASVKMSCKASGYAFSSYWINWMKQKPGQGLEWIGQIYPGDGDTNYNGKFKGRATLTADTSSSTAYMQLSSLTSEDSAVYFCARSITTVVGCAMDYWGQGTSVTVSSTREDLKNVFPPEVAVFEPSKAEIAHTQKATLVCLATGFYPDHVELSWWVNGKEVHSGVCTDPQPLKEQPALNDSRYCLSSRLRVSATFWQNPRNHFRCQVQFYGLSENDEWTQDRAKPVTQIVSAEAWGRADCGITSASYHQGVLSATILYEILLGKATLYAVLVSALVLMAMVKRKDSRGRAKRSGSGATNFSLLKQAGDVEENPGPSRGHMTEYKPTVRLATRDDVPRAVRTLAAAFADYPATRHTVDPDRHIERVTELQELFLTRVGLDIGKVWVADDGAAVAVWTTPESVEAGAVFAEIGPRMAELSGSRLAAQQQMEGLLAPHRPKEPAWFLATVGVSPDHQGKGLGSAVVLPGVEAAERAGVPAFLETSAPRNLPFYERLGFTVTADVEVPEGPRTWCMTRKPGA
modifications: Synthetic Polynucloetide

Key:
DAUDI (CD20+) cells = format: cell-based
RAJI cells = experiment: JNG (Jurkat NFAT-GFP) cells expressing SAR: GFP induction on co-culture with RAJI
RS411 cells = format: cell-based
PC3 cells = experiment: JNG NFAT-GFP induction on co-culture with PC3
SKOV3 cells = format: cell-based

Molecule	GFP induction (JNG-GFP induction assay), DAUDI (DAUDI (CD20+) cells)	GFP induction (JNG-GFP induction assay), RAJI WT (RAJI cells)	GFP induction (JNG-GFP induction assay), RS;411 (RS411 cells)	NFAT-GFP ASSAY: PC-3 (PC3 cells)	NFAT-GFP ASSAY: SKOV-3 (SKOV3 cells)
B1	highly positive	positive	highly positive	–	–
B2	–	–	–	significant GFP induction	–
B3	–	–	–	none to negligible GFP induction	weaker but sufficient GFP induction
B4	–	–	–	–	lowest GFP induction
B5	–	–	–	none to negligible GFP induction	weaker but sufficient GFP induction
B6	highly positive	positive	highly positive	–	–
